In patent publication US20230103631A1, “PEPTIDES AS SELECTIVE GIP RECEPTOR AGONISTS” (Sanofi, priority 2020, published 2023):
*1 amine or outer side, *2 acyl side, *3 side chain or, on linkers, in order; H or OH if unused. Where no end group is shown, it is not given here. Side-chain parts run from the residue outwards. [ ]: non-standard residue; d: D form. The star is where a group is joined. C18 diacid = O=C(O)CCCCCCCCCCCCCCCCC(=O)*; γGlu = O=C(O)[C@H](CCC(=O)[*:2])N[*:1]; AEEA = NCCOCCOCC(=O)O; Aib = CC(C)(N)C(=O)O; Sar = CNCC(=O)O

B1: SEQ ID NO: 9 (peptide)
peptide: Y[Aib]EGTFISDLSI[Aib]K([AEEA-AEEA-γGlu-C18 diacid])DRIHQEEFIEWLLAQGPSSGAPPPS-NH2
modifications: N-terminus assumed
SMILES: CC[C@H](C)[C@H](NC(=O)[C@H](Cc1ccccc1)NC(=O)[C@H](CCC(=O)O)NC(=O)[C@H](CCC(=O)O)NC(=O)[C@H](CCC(N)=O)NC(=O)[C@H](Cc1c[nH]cn1)NC(=O)[C@@H](NC(=O)[C@H](CCCNC(=N)N)NC(=O)[C@H](CC(=O)O)NC(=O)[C@H](CCCCNC(=O)COCCOCCNC(=O)COCCOCCNC(=O)CC[C@H](NC(=O)CCCCCCCCCCCCCCCCC(=O)O)C(=O)O)NC(=O)C(C)(C)NC(=O)[C@@H](NC(=O)[C@H](CO)NC(=O)[C@H](CC(C)C)NC(=O)[C@H](CC(=O)O)NC(=O)[C@H](CO)NC(=O)[C@@H](NC(=O)[C@H](Cc1ccccc1)NC(=O)[C@@H](NC(=O)CNC(=O)[C@H](CCC(=O)O)NC(=O)C(C)(C)NC(=O)[C@@H](N)Cc1ccc(O)cc1)[C@@H](C)O)[C@@H](C)CC)[C@@H](C)CC)[C@@H](C)CC)C(=O)N[C@@H](CCC(=O)O)C(=O)N[C@@H](Cc1c[nH]c2ccccc12)C(=O)N[C@@H](CC(C)C)C(=O)N[C@@H](CC(C)C)C(=O)N[C@@H](C)C(=O)N[C@@H](CCC(N)=O)C(=O)NCC(=O)N1CCC[C@H]1C(=O)N[C@@H](CO)C(=O)N[C@@H](CO)C(=O)NCC(=O)N[C@@H](C)C(=O)N1CCC[C@H]1C(=O)N1CCC[C@H]1C(=O)N1CCC[C@H]1C(=O)N[C@@H](CO)C(N)=O
notes: Exendin-4 derived synthetic lipidated peptide of formula I
B2: SEQ ID NO: 6 (peptide)
peptide: Y[Aib]EGTFISDLSI[Aib]K([Sar-Sar-Sar-γGlu-C18 diacid])DRIHQ[Aib]EFIEWLLAQGPSSGAPPPS-NH2
modifications: N-terminus assumed
SMILES: CC[C@H](C)[C@H](NC(=O)[C@H](CCCNC(=N)N)NC(=O)[C@H](CC(=O)O)NC(=O)[C@H](CCCCNC(=O)CN(C)C(=O)CN(C)C(=O)CN(C)C(=O)CC[C@H](NC(=O)CCCCCCCCCCCCCCCCC(=O)O)C(=O)O)NC(=O)C(C)(C)NC(=O)[C@@H](NC(=O)[C@H](CO)NC(=O)[C@H](CC(C)C)NC(=O)[C@H](CC(=O)O)NC(=O)[C@H](CO)NC(=O)[C@@H](NC(=O)[C@H](Cc1ccccc1)NC(=O)[C@@H](NC(=O)CNC(=O)[C@H](CCC(=O)O)NC(=O)C(C)(C)NC(=O)[C@@H](N)Cc1ccc(O)cc1)[C@@H](C)O)[C@@H](C)CC)[C@@H](C)CC)C(=O)N[C@@H](Cc1c[nH]cn1)C(=O)N[C@@H](CCC(N)=O)C(=O)NC(C)(C)C(=O)N[C@@H](CCC(=O)O)C(=O)N[C@@H](Cc1ccccc1)C(=O)N[C@H](C(=O)N[C@@H](CCC(=O)O)C(=O)N[C@@H](Cc1c[nH]c2ccccc12)C(=O)N[C@@H](CC(C)C)C(=O)N[C@@H](CC(C)C)C(=O)N[C@@H](C)C(=O)N[C@@H](CCC(N)=O)C(=O)NCC(=O)N1CCC[C@H]1C(=O)N[C@@H](CO)C(=O)N[C@@H](CO)C(=O)NCC(=O)N[C@@H](C)C(=O)N1CCC[C@H]1C(=O)N1CCC[C@H]1C(=O)N1CCC[C@H]1C(=O)N[C@@H](CO)C(N)=O)[C@@H](C)CC
notes: as for B1
B3: SEQ ID NO: 5 (peptide)
peptide: Y[Aib]EGTFISDLSI[Aib]K([Gly-Gly-Gly-γGlu-C18 diacid])DRIHQ[Aib]EFIEWLLAQGPSSGAPPPS-NH2
modifications: N-terminus assumed
SMILES: CC[C@H](C)[C@H](NC(=O)[C@H](CCCNC(=N)N)NC(=O)[C@H](CC(=O)O)NC(=O)[C@H](CCCCNC(=O)CNC(=O)CNC(=O)CNC(=O)CC[C@H](NC(=O)CCCCCCCCCCCCCCCCC(=O)O)C(=O)O)NC(=O)C(C)(C)NC(=O)[C@@H](NC(=O)[C@H](CO)NC(=O)[C@H](CC(C)C)NC(=O)[C@H](CC(=O)O)NC(=O)[C@H](CO)NC(=O)[C@@H](NC(=O)[C@H](Cc1ccccc1)NC(=O)[C@@H](NC(=O)CNC(=O)[C@H](CCC(=O)O)NC(=O)C(C)(C)NC(=O)[C@@H](N)Cc1ccc(O)cc1)[C@@H](C)O)[C@@H](C)CC)[C@@H](C)CC)C(=O)N[C@@H](Cc1c[nH]cn1)C(=O)N[C@@H](CCC(N)=O)C(=O)NC(C)(C)C(=O)N[C@@H](CCC(=O)O)C(=O)N[C@@H](Cc1ccccc1)C(=O)N[C@H](C(=O)N[C@@H](CCC(=O)O)C(=O)N[C@@H](Cc1c[nH]c2ccccc12)C(=O)N[C@@H](CC(C)C)C(=O)N[C@@H](CC(C)C)C(=O)N[C@@H](C)C(=O)N[C@@H](CCC(N)=O)C(=O)NCC(=O)N1CCC[C@H]1C(=O)N[C@@H](CO)C(=O)N[C@@H](CO)C(=O)NCC(=O)N[C@@H](C)C(=O)N1CCC[C@H]1C(=O)N1CCC[C@H]1C(=O)N1CCC[C@H]1C(=O)N[C@@H](CO)C(N)=O)[C@@H](C)CC
notes: as for B1

Legend:
[1] = in vivo; cited from earlier work
[2] = target: T1, human GIP receptor (human, UniProt P48546 22-466); test: cell-based or functional assay
T1 sequence (looked up): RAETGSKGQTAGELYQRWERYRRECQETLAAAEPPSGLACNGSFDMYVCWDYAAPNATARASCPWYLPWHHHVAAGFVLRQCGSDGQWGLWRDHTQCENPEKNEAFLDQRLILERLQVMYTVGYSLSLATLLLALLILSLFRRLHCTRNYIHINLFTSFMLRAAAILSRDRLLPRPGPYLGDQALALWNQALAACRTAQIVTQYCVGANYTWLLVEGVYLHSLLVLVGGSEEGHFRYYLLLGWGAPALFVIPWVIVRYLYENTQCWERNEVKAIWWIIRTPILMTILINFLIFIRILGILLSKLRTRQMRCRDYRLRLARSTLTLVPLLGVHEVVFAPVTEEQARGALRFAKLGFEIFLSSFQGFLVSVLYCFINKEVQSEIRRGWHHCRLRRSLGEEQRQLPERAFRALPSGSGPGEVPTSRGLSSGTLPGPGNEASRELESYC

[3] = target: T2, human GLP-1 receptor (human, UniProt P43220 24-463); test: cell-based or functional assay
[4] = target: T1, human GIP receptor; test: cell-based or functional assay; remark: listed apart in the source
[5] = target: T2, human GLP-1 receptor; test: displacement of [125I]GLP-1 from hGLP-1R HEK-293 membranes, SPA
[6] = target: T1, human GIP receptor; test: displacement of [125I]GIP from hGIPR HEK-293 membranes, SPA

Molecule	half-life [1]	hGIPR EC50, cAMP in human adipocytes [2]	hGIPR Emax, cAMP in human adipocytes [2]	EC50 hGLP-1R 0% HSA, cAMP in HEK-293 cells [3]	EC50 hGIPR 0% HSA, cAMP in HEK-293 cells [4]	EC50 hGIPR 0.1% HSA, cAMP in HEK-293 cells [4]	IC50 [5]	IC50 [6]
CC[C@H](C)[C@H](NC(=O)[C@H](CO)NC(=O)[C@H](Cc1ccc(O)cc1)NC(=O)[C@H](CC(=O)O)NC(=O)[C@H](CO)NC(=O)[C@@H](NC(=O)[C@H](Cc1ccccc1)NC(=O)[C@@H](NC(=O)CNC(=O)[C@H](CCC(=O)O)NC(=O)[C@H](C)NC(=O)[C@@H](N)Cc1ccc(O)cc1)[C@@H](C)O)[C@@H](C)CC)C(=O)N[C@@H](C)C(=O)N[C@@H](CCSC)C(=O)N[C@@H](CC(=O)O)C(=O)N[C@@H](CCCCN)C(=O)N[C@H](C(=O)N[C@@H](Cc1c[nH]cn1)C(=O)N[C@@H](CCC(N)=O)C(=O)N[C@@H](CCC(N)=O)C(=O)N[C@@H](CC(=O)O)C(=O)N[C@@H](Cc1ccccc1)C(=O)N[C@H](C(=O)N[C@@H](CC(N)=O)C(=O)N[C@@H](Cc1c[nH]c2ccccc12)C(=O)N[C@@H](CC(C)C)C(=O)N[C@@H](CC(C)C)C(=O)N[C@@H](C)C(=O)N[C@@H](CCC(N)=O)C(=O)N[C@@H](CCCCN)C(=O)NCC(=O)N[C@@H](CCCCN)C(=O)N[C@@H](CCCCN)C(=O)N[C@@H](CC(N)=O)C(=O)N[C@@H](CC(=O)O)C(=O)N[C@@H](Cc1c[nH]c2ccccc12)C(=O)N[C@@H](CCCCN)C(=O)N[C@@H](Cc1c[nH]cn1)C(=O)N[C@@H](CC(N)=O)C(=O)N[C@H](C(=O)N[C@H](C(=O)N[C@@H](CCC(N)=O)C(=O)O)[C@@H](C)O)[C@@H](C)CC)C(C)C)[C@@H](C)CC [SEQ ID NO: 1, GIP (glucose-dependent insulinotropic polypeptide)]	2 min	–	–	–	–	–	–	–
B1	–	1.4 nM	125%	> 10 nM	0.00019 nM	0.00194 nM	307 nM	0.9 nM
B2	–	0.3 nM	112%	> 10 nM	0.00017 nM	0.00105 nM	173 nM	–
B3	–	0.5 nM	137%	> 10 nM	0.00016 nM	0.00175 nM	145 nM	–
